Assay results published in the NTF2 design screens of Basanta et al. (2020).

test: protease stability score; higher = more stable; yeast display proteolysis, trypsin and chymotrypsin;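 also: relative to predicted unfolded state with 0 unfolded-like and 1 meaning tenfold more protease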

**Q.** Which protease stability score does the source give for “DEDEEELEKMLHKMLESLRTGDWKDITENLDPHTRFNINGVDFHGRELAHEVLHEWFERYKNIRIFLNTSRTINGRVELILRIEIGDKEEEMRILVIKVDGRWFMDTVDVRTR” here?
**A.** 2.13

**Q.** Which protease stability score does the source give for “TEDERDVVKLLHLVSKLWLTGDEHILEHLADPSVRSDFDGVRLHGRRLLSYFLSELRIHHVEVRDVRVEYQGDKLIARSDTEVDLEIDGQRHRMDTRMILISRKWDGRWLIESISFEIQ” here?
**A.** 2.04

**Q.** Which protease stability score does the source give for “DEDEELARKFIKKTSEARETGNEDDFMNLADPNVRQDINGVPIIGREEVSRIISHLRIRMEIRIRDVRIVGEKVELDVHIRMDIDFDGQRIHDKRDVHIILVKIDGKWLLHSVNHR” here?
**A.** 0.536

**Q.** With “DELEEELDQFQKLMVESSKTGDEDTEKKLADPNVRVDINGVILHGMENFVEFMRHWRIKHIHNKEVRFINGRAHVTGDVEGHVNGRDTRTRVTLIIIKINGRWFIEEVKFD” as the sequence, how does the protease stability score read?
**A.** 1.37

**Q.** With “SEEEHEADLLHKELWESWHTGDEKHLTNLMDPNVRLQIGDKHYVGRENALNVLHFIRRKLGIKYFELESVTHHEINGRIHTIFDGSILINGKTVKDKIEVDTEKYNGQWRITQINIDFR” as the sequence, how does the protease stability score read?
**A.** 2.24

**Q.** Which protease stability score does the source give for “SEDEEHLKELSEMLIKNWLTGDEKKWDRLADPHAKLRINVNGRDRRRVGMENVHRALHHLFHELRIKHLRDKDSNLINGVSHIEGESTILVGDKEIDTRIVIHLLIIDGRLEEERIVIE” here?
**A.** 0.178

**Q.** With “DEDSEQARKFTELLFESIRTGDWKSLERLFDPNTRLEVGEFEHHGMEEATKFLIELRLEDFHIHSTKIDIQGEWIHIRLDGVERGYIGDKKRDTRSHIRLDNLKINGRWINQRLIIEIR” as the sequence, how does the protease stability score read?
**A.** 1.13

**Q.** For “SEEEHEAIKHAYEFLEWLRTGDEEKIEKLLDPNVRLIIGDKTAHGREEFIRVMKEELERMGVNVFRLRDTRVNIFDGRVEIRFDTDLHFNGKTVHVELILRVHKVDGRWVLESVQVNIH”, which protease stability score is on record?
**A.** 1.48

**Q.** With “SEDERDAKRAEEEFKRHVETGDEKMLREMMDPHVRFEIGDKEFIGWNFAEKLHLDLIERIDHEELILRHINVVNGKVDSDVELRVHVDGVTIIVRTRIISKKIDGRWLIRSIIIH” as the sequence, how does the protease stability score read?
**A.** 0.695

**Q.** Which protease stability score does the source give for “SELEEEAKELIEEWLHSFSTGDEKKLYELADPDDRLLFNGVEFVGREEMLKNFRDLYRKWGVTRVEADVKRIHVFNGVAHSDTVSHYNGVRVKTHLVIEKINGRWRVSSLHIH” here?
**A.** 1.42

**Q.** For “QEEEEFVRKFVHEVIRALMTGDEHRMHELLDPHVISSRHIGDKHVHYHGREEVLRHLHEWLTHLRIKSLEIRSHKAFDGRMIVHGTLFGQQGDKDVEFEVIIDLEVINGRIKHFHVELR”, which protease stability score is on record?
**A.** 1.32

**Q.** For “DETHKDAERALEIEIRDFVTGDFKSMQRLADPNVKIEVGDKHWHGREEFEKLVKEVIDQFPNMRLDVRVTHWELQGEKLIMRTEVNEHFDGVTFKHETHIIIRKINGRWFLTSVHIQ”, which protease stability score is on record?
**A.** 1.36

**Q.** Which protease stability score does the source give for “DEINEDLERQARLFYHLWLTGDEEILEKLVDPHVRIILVFNGVPKQDHGREWLMKLFEEIRVEHFEIKTFEIQGEKAIMDTHEIIHVNGKRTRLRVHLWLTMVNGRIKTIEIRFV” here?
**A.** 2.13

**Q.** With “TEEQHEARHLFQLWVYSVITGNEHILHNLVDPHYLLDVGDYHVHGREDTLKVLLEARVEDFRVRDVRVYDGRLESDIEFTGHFNGRKINNKVEMTQEKIDGRWYLKRTKVT” as the sequence, how does the protease stability score read?
**A.** 1.77

**Q.** Which protease stability score does the source give for “DEDTESATKALQLFIHLFITGDEEQLLRLLDPNARNDIGDYHRHGREFLEFFVERVKNVTFHLHDMRLELIGDKIHLIIHGDEWVNGVRLRTELVILMEKVNGRWVIRSVRVIFR” here?
**A.** 1.75

**Q.** With “DEVTEIAERFLEEFIQHHETGDEDRIRHLMDPHVRLTQGDKTLHGREEASRVVIELAKRIDHLHIKLTTIRVQGEKVYIHTELRMEVGDKELRFHVTFIFLKVNGRWRMHSVHIE” as the sequence, how does the protease stability score read?
**A.** 1.06

**Q.** Which protease stability score does the source give for “SEWDRLMKRIAEDITTALQTGDEDRMHELFDPHARMILLIGDFELHYHGMHEISRVLEEHLRRYDHLEWHIRHVDTQGNKVRVESEMRLIIGDKSETRDYRIILIVINGRNKSVEFRVH” here?
**A.** 1.49

**Q.** With “HEHTKMLLDMHRLWMELWLTGDEHELEKLLDPNVRIIIHVNGVDISIHGRETVRRVLRHEIKRYDHLEINLKRHSAYDGKVESDTEFRVIFDGKRIELDTRIKNIVINGRTKEWIFELE” as the sequence, how does the protease stability score read?
**A.** 0.619

**Q.** Which protease stability score does the source give for “SEDEDISRNFLELEWKKHMTGDWRTFAENIDPNARVDIDGVEFHGRELISRLMHEKIRKHGVKIKHLHIDHVSSQGDKIHINTTLVGLFNGRDTHLEVHIVITKINGRWVLQEFHFD” here?
**A.** 0.591

**Q.** For “SEMDEASKLALKLLEHMVRTGDEHLSEHLVDPHARLFQGDKVEWGRERMTRQLHEWRVRDFKLKRVHVYNGRIEVDGVLNGTVDGVDENRDVRLIITKIDGQWLIKSVIIE”, which protease stability score is on record?
**A.** 0.474

**Q.** With “TEDHEIVEDALRLWWTSVHTGDETLMSRLADPDVRLIVGDKHFHGREKFTRTMKELDDEMRFHHLEIKEFELFDGRIKINVRLRGTIGDKHTIFEVNVINLKVNGKWLLKSLEVR” as the sequence, how does the protease stability score read?
**A.** 1.1

**Q.** Which protease stability score does the source give for “RELDEMAERAVEWYFRVLRTGDEHTLSRLLDPNVRVVFDGRTYIGREWYREHEEKLGVDHMRLDVKSVRNINGRIEVDVRVNREVNGQEIRIEMRMTSEKVDGRWEVKTVEEK” here?
**A.** 1.3

**Q.** For “DETTETLLRISESNIRNWETGDFDTIKQLLDPHVRMEQGDKTNHGRERVAKSWTEFLRELRLKTVHLHEVDVQGEKALSHVILFVKIGDKKIEVEAHLLVVVIDGKVSSIHITIK”, which protease stability score is on record?
**A.** -0.305

**Q.** With “SEDDETIERASRLLVEDHDTGDWESWEKNADPNMRLVIGDKDVVGRENVVEHLHRLRKKMGVKHVHLRVESIEVQGDKIRQDGRLLIIVNGQELRIEVRIVAIKVNGQWINRMVDVK” as the sequence, how does the protease stability score read?
**A.** 1.08

**Q.** Which protease stability score does the source give for “SEEEEDVRIALLMLEHTMRTGDEEDTREMADPNVRVEVGDKELHGRELYVEWFHRLGVKHFDIREVRFIGDKVNIRGISHVNGRNYHVVLHARKIDGRWHLTLWEMR” here?
**A.** 1.41

**Q.** With “DEKEEHFTTMMEIWLEIFRTGDWERLEKLMDPNVRHREVVDGRHLHLHGMENVSRLLHERENKLGANHIDLTHADIVNGRASIEGRVNYGDKRHKIRFDIHIVNGRVQHIQDIKI” as the sequence, how does the protease stability score read?
**A.** -0.034

**Q.** Which protease stability score does the source give for “EERKESIRLAVEMIEHVFKTGNPEDEMSLFDPHAKLDVGDKHFHGREEYSRWSEEVRRRYGADHIEFRIEDVHSQGDFVDIHGKEVYIYNGVTFVIDVHFHVLKVNGRWLIKHIRIN” here?
**A.** 1.3

**Q.** For “EEDFRLVDKFIKDFWKSFRTGDEDLFKKYLDPHVQLEVNGQEIHGREQLSRVLVELIIEFGVDHVEFRLHDWHIYDGQAEHHTHVRLKYGDKNVRRTLHIFMLKVDGRWILESMVIR”, which protease stability score is on record?
**A.** 1.26

**Q.** For “DDEEKYFRMAVHHIIHLLHTGDETDSEHQADPDVRITVGDKRFHGREDFRDWVRELTDRYKNMTFRLKSVDVQGDFIILHGLLHFNGKNVEFDVFSWKFNGKWFMHHIIVR”, which protease stability score is on record?
**A.** 1.72

**Q.** Which protease stability score does the source give for “SEEKEMLETWFLLLVESFETGDEELFEELADPRTRLVINGRHQHGREDINEWLHRVWHKLGAKHVSLDLHDMRVINGRIHSHFTLLIRIGDYTERRQVDLHMIIINGKVKHVEIRFR” here?
**A.** 1.06

**Q.** With “TEEERDTKIAVDLFEEYSRTGNEDNMRELADPNVRLKINGVDYVGWKHMTKLLNHWRVKTVNIRHVEIQGDYARSDVEEEVLINGKEDRRTSRLILFKVNGRWIIKSLEFD” as the sequence, how does the protease stability score read?
**A.** 1.28

**Q.** For “TEEKHELEKLAKIMFEIIETGDEKTWDELLDPNMRSDVNGVENIGREKVDKAILHYIKRIPNVRIQFTDMHIQGDKVIIRTEVHIGDYREELIIEVVVVNGRFKSFRLTLRRE”, which protease stability score is on record?
**A.** 1.22

**Q.** Which protease stability score does the source give for “DEDEKIVKHMLEVLIHLILTGDWEMFQKLADPNTRLDINGREQVGWESVTKNLEHMRYHDIRSQHIEIQGNKLRNLTRVDGEVDGVRREIEVHIYSTKINGKWRLTSMQFH” here?
**A.** 1.1

**Q.** For “DEDEEHAYRIFKILLESVYTGNEEMLHTLLDPHARLVFDGVHHHGRETVSYMMHHWRVEEFHTHSFHVDIINGVADLKWDGHITGHFNGKRQESRVEIRFFLRKVDGKWLNESVEIIFR”, which protease stability score is on record?
**A.** 1.49

**Q.** With “SEDEEFFKKALDLVFEYNRTGDERSMNELADPHVKVDINGVTLHGWEEFSRHLRELRLKTFKLDDLDSQGDKIITKGVFHHHINGRTIDLDVIIFTRKINGRWVLEKVEFK” as the sequence, how does the protease stability score read?
**A.** 1.35

**Q.** With “SEDEEDAERLIRELEHAWHTGDEKYLWEMIDPHARFIIGDKEFHGRDLQLRILHRLIKELGVSRFELHIEHFEVIDGRLHTEGRLNVNGRILKTHLILRKIDGRWLIKSDELR” as the sequence, how does the protease stability score read?
**A.** 1.49
